Assay results taken from article PMC8892516, “Intragenic suppressors unravel the role of the SCREAM ACT-like domain for bHLH partner selectivity in stomatal development” (Proceedings of the National Academy of Sciences of the …, 2022).

B1: ΔNSPCH (98-364), recombinant (domain or fragment, Arabidopsis thaliana, UniProt Q700C7 98-364, looked up)
chain: GQQKMSHVTVERNRRKQMNEHLTVLRSLMPCFYVKRGDQASIIGGVVEYISELQQVLQSLEAKKQRKTYAEVLSPRVVPSPRPSPPVLSPRKPPLSPRINHHQIHHHLLLPPISPRTPQPTSPYRAIPPQLPLIPQPPLRSYSSLASCSSLGDPPPYSPASSSSSPSVSSNHESSVINELVANSKSALADVEVKFSGANVLLKTVSHKIPGQVMKIIAALEDLALEILQVNINTVDETMLNSFTIKIGIECQLSAEELAQQIQQTFC
notes: BLI and ITC name it only SPCH; ΔNSPCH (98-364) is the only long recombinant SPCH construct that the methods list; also called purified SPCH; source: E. coli BL21, purified (glutathione resin, thrombin, Superdex-200); not shown: GST, N-terminal, cleaved
B2: SCRMΔC (1-404), recombinant (domain or fragment, Arabidopsis thaliana, UniProt Q9LSE2 1-404, looked up)
chain: MGLDGNNGGGVWLNGGGGEREENEEGSWGRNQEDGSSQFKPMLEGDWFSSNQPHPQDLQMLQNQPDFRYFGGFPFNPNDNLLLQHSIDSSSSCSPSQAFSLDPSQQNQFLSTNNNKGCLLNVPSSANPFDNAFEFGSESGFLNQIHAPISMGFGSLTQLGNRDLSSVPDFLSARSLLAPESNNNNTMLCGGFTAPLELEGFGSPANGGFVGNRAKVLKPLEVLASSGAQPTLFQKRAAMRQSSGSKMGNSESSGMRRFSDDGDMDETGIEVSGLNYESDEINESGKAAESVQIGGGGKGKKKGMPAKNLMAERRRRKKLNDRLYMLRSVVPKISKMDRASILGDAIDYLKELLQRINDLHNELESTPPGSLPPTSSSFHPLTPTPQTLSCRVKEELCPSSLPSP
notes: SCREAM (SCRM, ICE1), Arabidopsis thaliana, At3G26744, residues 1-404; the purification methods tell thrombin cleavage; also called SCRM1ΔC; source: E. coli BL21, purified (glutathione resin, thrombin, Superdex-200); not shown: GST, N-terminal, cleaved
B3: ΔNFAMA, recombinant (domain or fragment)
chain: ESQRMTHIAVERNRRKQMNEHLRVLRSLMPGSYVQRGDQASIIGGAIEFVRELEQLLQCLESQKRRRILGETGRDMTTTTTSSSSPITTVANQAQPLIITGNVTELEGGGGLREETAENKSCLADVEVKLLGFDAMIKILSRRRPGQLIKTIAALEDLHLSILHTNITTMEQTVLYSFNVKITSETRFTAEDIASSIQQIFSFIHANTNISGSSNLGNIVFT
modifications: Limits not printed. Start set by analogy with the printed ΔNSPCH 98-364, which starts one residue before its annotated bHLH (99); FAMA bHLH is 194-245. Runs to the native C-terminus, including the …

Columns and labels:
SCRM ACTL (405-494) = target: T1, SCRM ACTL (405-494) (Arabidopsis thaliana, UniProt Q9LSE2 405-494); assay: ITC; Malvern PEAQ-ITC, 25 °C, PBS pH 7.4; 150 μM SCRM ACTL/SCRM L484F ACTL injected into 15 μM SPCH ACTL/MUTE ACTL; conditions: both partners purified
T1 construct: SCREAM (SCRM, ICE1), Arabidopsis thaliana, At3G26744, ACT-like domain, residues 405-494; also called SCRM ACTL domain; source: E. coli BL21, purified (glutathione resin, thrombin, Superdex-200); not shown: GST, N-terminal, cleaved
T1 sequence (looked up): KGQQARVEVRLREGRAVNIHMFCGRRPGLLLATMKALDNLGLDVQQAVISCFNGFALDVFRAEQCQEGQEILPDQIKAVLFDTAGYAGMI

[1] = target: B2; assay: ITC; Malvern PEAQ-ITC, 25 °C, PBS pH 7.4; 40 μM SCRM/SCRMΔC injected into 4 μM SPCH/MUTE/FAMA; single binding site model; conditions: both partners purified
[2] = target: T2, SCRM (1-494), recombinant (Arabidopsis thaliana, UniProt Q9LSE2 1-494); assay: as above; conditions: both partners purified
T2 construct: SCREAM (SCRM, ICE1), Arabidopsis thaliana, At3G26744, residues 1-494; the purification methods tell thrombin cleavage; source: E. coli BL21, purified (glutathione resin, thrombin, Superdex-200); not shown: GST, N-terminal, cleaved
T2 sequence (looked up): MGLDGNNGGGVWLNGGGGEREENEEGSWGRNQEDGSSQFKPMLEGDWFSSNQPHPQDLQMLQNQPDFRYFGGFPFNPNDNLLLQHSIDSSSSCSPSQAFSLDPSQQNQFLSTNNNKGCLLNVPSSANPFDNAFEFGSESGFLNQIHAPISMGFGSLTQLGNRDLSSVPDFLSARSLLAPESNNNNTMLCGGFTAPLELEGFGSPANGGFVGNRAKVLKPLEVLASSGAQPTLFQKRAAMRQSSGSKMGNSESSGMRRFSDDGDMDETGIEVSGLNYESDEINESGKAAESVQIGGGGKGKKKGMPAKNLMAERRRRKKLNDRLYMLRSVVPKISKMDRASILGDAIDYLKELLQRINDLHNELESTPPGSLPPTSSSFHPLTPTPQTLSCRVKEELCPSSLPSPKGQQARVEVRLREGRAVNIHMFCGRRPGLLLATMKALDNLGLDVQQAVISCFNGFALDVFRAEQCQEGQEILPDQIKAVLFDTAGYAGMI

GST-fused SCRM (1-494) = target: T3, GST-fused SCRM (1-494) (Arabidopsis thaliana, UniProt Q9LSE2 1-494); assay: BLI; Octet Red96; anti-GST probes loaded with 500 nM GST-SCRM or GST-SCRMΔC; SPCH/MUTE/FAMA as analyte at 3.12-200 nM; 30 °C; 1x PBS with 0.02% Tween 20; no DNA; 1:1 model; conditions: both partners purified
T3 construct: SCREAM (SCRM, ICE1), Arabidopsis thaliana, At3G26744, residues 1-494; GST kept for loading on anti-GST probes; also called GST SCRM; GST-tagged SCRM; source: E. coli BL21, purified (glutathione agarose resin); not shown: GST, N-terminal, kept
T3 sequence (looked up): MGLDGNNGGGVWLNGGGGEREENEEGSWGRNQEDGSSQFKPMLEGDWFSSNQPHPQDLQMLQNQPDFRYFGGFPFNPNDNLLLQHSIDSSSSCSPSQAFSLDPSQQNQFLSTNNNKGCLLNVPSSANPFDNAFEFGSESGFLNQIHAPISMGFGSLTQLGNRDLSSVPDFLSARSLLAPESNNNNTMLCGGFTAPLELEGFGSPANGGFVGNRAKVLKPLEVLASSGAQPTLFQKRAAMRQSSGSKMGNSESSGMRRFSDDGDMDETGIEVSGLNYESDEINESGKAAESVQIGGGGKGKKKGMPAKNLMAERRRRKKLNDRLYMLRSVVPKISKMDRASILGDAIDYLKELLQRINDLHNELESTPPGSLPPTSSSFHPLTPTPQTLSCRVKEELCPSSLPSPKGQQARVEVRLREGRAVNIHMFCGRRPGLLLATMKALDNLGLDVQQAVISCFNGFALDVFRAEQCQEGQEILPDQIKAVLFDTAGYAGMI

GST-fused SCRMΔC (1-404) = target: T4, GST-fused SCRMΔC (1-404) (Arabidopsis thaliana, UniProt Q9LSE2 1-404); assay: as above; conditions: both partners purified
T4 construct: SCREAM (SCRM, ICE1), Arabidopsis thaliana, At3G26744, residues 1-404; GST kept for loading on anti-GST probes; also called GST SCRMΔC; SCRM1ΔC; source: E. coli BL21, purified (glutathione agarose resin); not shown: GST, N-terminal, kept
T4 sequence (looked up): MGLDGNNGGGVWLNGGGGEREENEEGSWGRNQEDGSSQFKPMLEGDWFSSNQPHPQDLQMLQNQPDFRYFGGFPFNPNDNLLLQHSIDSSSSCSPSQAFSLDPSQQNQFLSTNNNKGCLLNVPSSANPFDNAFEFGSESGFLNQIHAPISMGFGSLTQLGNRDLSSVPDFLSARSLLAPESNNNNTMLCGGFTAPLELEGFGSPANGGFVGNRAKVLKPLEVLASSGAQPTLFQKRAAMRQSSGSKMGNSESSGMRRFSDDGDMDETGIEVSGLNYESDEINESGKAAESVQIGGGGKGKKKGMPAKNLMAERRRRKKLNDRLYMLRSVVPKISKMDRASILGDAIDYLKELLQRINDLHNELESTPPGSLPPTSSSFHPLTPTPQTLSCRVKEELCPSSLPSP

[3] = target: B1; assay: ITC; Malvern PEAQ-ITC, 25 °C, PBS pH 7.4; 40 μM SCRM/SCRMΔC injected into 4 μM SPCH/MUTE/FAMA; single binding site model; conditions: both partners purified
ΔNFAMA, recombinant = target: B3; assay: as above; conditions: both partners purified
[4] = target: GST-fused SCRMΔC (1-404) (Arabidopsis thaliana) (UniProt Q9LSE2); assay: BLI; as a3, samples incubated for 30 min with a 1:4 molar ratio of the TMM promoter DNA fragment
[5] = target: GST-fused SCRMΔC (1-404) (Arabidopsis thaliana) (UniProt Q9LSE2); assay: BLI; as a3, samples incubated for 30 min with a 1:4 molar ratio of the synthetic E-box DNA fragment
SPCH-ACTL (285-364) = target: T5, SPCH-ACTL (285-364) (Arabidopsis thaliana, UniProt Q700C7 285-364); assay: ITC; Malvern PEAQ-ITC; 150 µM SCRM ACTL/SCRM L484F ACTL injected into 15 µM SPCH ACTL/MUTE ACTL; PBS, pH 7.2 (Table S3; methods: pH 7.4); 25 °C; means of two experiments; conditions: both partners purified
T5 construct: also called SPCH ACTL domain; source: E. coli BL21, purified (glutathione resin, thrombin, Superdex-200); not shown: GST, N-terminal, cleaved
T5 sequence (looked up): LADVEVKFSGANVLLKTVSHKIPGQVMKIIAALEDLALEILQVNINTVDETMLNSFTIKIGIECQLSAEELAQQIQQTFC

| Binder | Kd [1] | Kd [2] | Kd (GST-fused SCRM (1-494)) | Kd (GST-fused SCRMΔC (1-404)) | also measured |
| --- | --- | --- | --- | --- | --- |
| MUTE-ACTL (114-202) (domain or fragment, Arabidopsis thaliana, UniProt Q9M8K6 114-202, looked up, MUTE, Arabidopsis thaliana, ACT-like domain, residues 114-202; source: E. coli BL21, purified (glutathione resin, thrombin, Superdex-200); not shown: GST, N-terminal, cleaved) HANVEAKISGSNVVLRVVSRRIVGQLVKIISVLEKLSFQVLHLNISSMEETVLYFFVVKIGLECHLSLEELTLEVQKSFVSDEVIVSTN | – | – | – | – | Kd (SCRM ACTL (405-494)): 5100 nM |
| B1 | 61 ± 4.2 nM | 6.5 ± 1.6 nM | 5.2 ± 1.1 nM | 68 ± 5.5 nM | – |
| B2 | – | – | – | – | stoichiometry N [3]: 1; stoichiometry N (ΔNFAMA, recombinant): 1 |
| MUTE (1-202), recombinant (natural protein, Arabidopsis thaliana, UniProt Q9M8K6 1-202, looked up, MUTE, Arabidopsis thaliana, residues 1-202; MUTE (1-202) was cloned both in pGEX-4T-1 (N-terminal GST, thrombin cleaved) and in pET28a (N-terminal His tag); also called purified MUTE; MUTE-HIS; source: E. coli BL21, purified (Ni-NTA, Superdex-200)) MSHIAVERNRRRQMNEHLKSLRSLTPCFYIKRGDQASIIGGVIEFIKELQQLVQVLESKKRRKTLNRPSFPYDHQTIEPSSLGAATTRVPFSRIENVMTTSTFKEVGACCNSPHANVEAKISGSNVVLRVVSRRIVGQLVKIISVLEKLSFQVLHLNISSMEETVLYFFVVKIGLECHLSLEELTLEVQKSFVSDEVIVSTN | – | 10.5 ± 2.1 nM | 7.3 ± 1.5 nM | – | Kd [4]: 565 nM; Kd [5]: 545 nM |
| B3 | 68 ± 5.2 nM | 9.6 ± 1.4 nM | 8.2 ± 2.1 nM | 52 ± 3.6 nM | – |
| SCRM ACTL L484F (405-494) (domain or fragment, Arabidopsis thaliana, UniProt Q9LSE2 405-494, looked up, SCREAM (SCRM, ICE1), Arabidopsis thaliana, At3G26744, C-terminal ACT-like domain, residues 405-494, with L484F (the methods print L485F); also called SCRM L484F ACTL; source: E. coli BL21, purified (glutathione resin, Superdex-200)) KGQQARVEVRLREGRAVNIHMFCGRRPGLLLATMKALDNLGLDVQQAVISCFNGFALDVFRAEQCQEGQEILPDQIKAVFFDTAGYAGMI | – | – | – | – | stoichiometry N (SPCH-ACTL (285-364)): 0.85 |
